Data published in patent publication US20240352438A1, “MEANS AND METHODS FOR DETOXIFYING OCHRATOXIN A” (DSM Austria GmbH, priority 2021, published 2024).
Positions count from the first letter of the chain named. Numbers in names are those of the source.

B1: I308V/V355L: variant of the enzyme of SEQ ID NO: 318 having the mutation combination I308V/V355L (protein)
chain: MTTRTRILTAFLSLLAANACAADAAPAAPHTVVLRAARMFDGASGKLVDHPQLTIVGNKIVRIAQGDKAEVPAGAEVVDLGDATLLPGFIDAHVHLSGQSSDNWYGDFFDNMMRFPAEQALYGAYYARITLEAGFTSVRDVGSTDWVALGLRNAIDAGKVPGPRMLVSNYAVGSTGGHADQDPIPPHKLPLAGPLQGVCNGPEECRAAVRYQIKYGANVIKFMPSGGVLSLSDPVDAPELSQDEMNAVIGESHAWGRKVAAHAHGDKAAKMAVAAGVDSIEHGSFIEDDTLRAMKAKNVYLVPTISAVAHVEEKIGTFPPVIAEKGRAAAAHLRQTFRHAVQIGVPIALGTDAGLGAHGSNAREFRYMVENGLTPAQALLAGTANAARLLGTFDRVGTLEAGKLADVVAVPGNPIADITVTERPLFVMKDGVVVRRDAVR
modifications: exemplary polypeptide
B2: F318Y/V355L: variant of the enzyme of SEQ ID NO: 318 having the mutation combination F318Y/V355L (protein)
chain: B1 chain with V308I, F318Y
modifications: exemplary polypeptide
B3: 205 (protein)
chain: B1 chain with V308I, I322S, L355V
modifications: exemplary polypeptide
B4: 223 (protein)
chain: B1 chain with K188E, V308I, L355V
modifications: exemplary polypeptide
B5: 185 (protein)
chain: B1 chain with V308I, A330V, L355V
modifications: exemplary polypeptide
B6: 233 (protein)
chain: B1 chain with D233S, V308I, L355V
modifications: exemplary polypeptide
B7: 161 (protein)
chain: B1 chain with V308A, G354A, L355V
modifications: exemplary polypeptide
B8: 170 (protein)
chain: B1 chain with A171P, V308A, G354A, L355V
modifications: exemplary polypeptide
B9: 199 (protein)
chain: B1 chain with W104L, V308I, L355V
modifications: exemplary polypeptide
B10: 191 (protein)
chain: B1 chain with V308I, G354T, L355V
modifications: exemplary polypeptide
B11: 228 (protein)
chain: B1 chain with S230D, V308I, L355V
modifications: exemplary polypeptide
B12: 215 (protein)
chain: B1 chain with N103L, V308I, L355V
modifications: exemplary polypeptide
B13: 176 (protein)
chain: B1 chain with I184V, G354A, L355V
modifications: exemplary polypeptide
B14: 226 (protein)
chain: B1 chain with G226P, V308I, L355V
modifications: exemplary polypeptide
B15: 178 (protein)
chain: B1 chain with V308A, F318Y, G354A, L355V
modifications: exemplary polypeptide
B16: 222 (protein)
chain: B1 chain with K188D, V308I, L355V
modifications: exemplary polypeptide
B17: 172 (protein)
chain: B1 chain with A171P, V308I, F318Y, G354A, L355V
modifications: exemplary polypeptide
B18: 212 (protein)
chain: B1 chain with H50P, V308I, L355V
modifications: exemplary polypeptide
B19: 236 (protein)
chain: B1 chain with S284D, V308I, L355V
modifications: exemplary polypeptide
B20: 229 (protein)
chain: B1 chain with S230P, V308I, L355V
modifications: exemplary polypeptide
B21: 171 (protein)
chain: B1 chain with A171P, G354A, L355V
modifications: exemplary polypeptide
B22: 204 (protein)
chain: B1 chain with V308I, I322Q, L355V
modifications: exemplary polypeptide

Assay: OTA detoxification activity assay (specific activity, fluorescence reduction ex/em 390/450 nm)
Assay type: biochemical
Conditions: pH 6
Method: To determine the specific activity of recombinant target polypeptides produced e.g. as described in Example 2 above in units per liter (U/L), ochratoxin A (OTA) detoxification activity assays were performed. One unit is defined as the amount of enzyme necessary for degradation of 1 μmol or OTA in 1 min when using a starting OTA concentration of […].
OTA detoxification activity assays were set up in a final volume of the reaction mixture of […], containing the recombinant enzyme preparation (preferably diluted to yield a volumetric activity of 1-10 mU/L), and 200 ng/mL OTA in 100 mM sodium phosphate buffer.
Specific activities were determined at pH 6.0 and pH 7.5. As soon as all components of the reaction mixture were mixed, OTA degradation was followed at 37° C. on a fluorescence spectrophotometer (BioTek Synergy H1 MFD Multimode microplate reader) by following the reduction in fluorescence at ex/em 390 nm/450 nm. For work performed at pH 6.0 and 7.5, a 100 mM sodium phosphate buffer was used.
For calculation of the specific activity, the initial linear part of the recorded fluorescence reduction curve was used. In addition to the fluorescence-based method described above, OTA degradation was also determined by using the HPLC-MS method as described by Dellafiora et al. 2020, Toxins 12, 258, essentially confirming the fluorescence-based results. Genes encoding either of the indicated SEQ ID NOs are expressed as described herein and the specific activities for the obtained polypeptide preparation are exemplarily shown in Table 8. Analogously, enzymatic activities using either ochratoxin B, C or TA as substrate or can be found.

Molecule | % of the activity of the non-mutated enzyme of SEQ ID NO: 318 at pH 6 [%]
B1 | 209
B2 | 197

Same assay, conditions: pH 6.0; SEQ ID NO: 1 = 100%

Molecule | Specific OTA detoxification activities in % compared to the enzyme of SEQ ID NO: 1, pH 6.0 [%]
B3 | 52
B4 | 14
B5 | 32
B6 | 11
B7 | 132
B8 | 49
B9 | 9
B10 | 21
B11 | 23
B12 | 27
B13 | 112
B14 | 19
B15 | 85
B16 | 8
B17 | 62
B18 | 46
B19 | 19
B20 | 21
B21 | 69
B22 | 41

Same assay, conditions: pH 7.5

Molecule | % of the activity of the non-mutated enzyme of SEQ ID NO: 318 at pH 7.5 [%]
B1 | 189
B2 | 138

Same assay, conditions: pH 7.5; SEQ ID NO: 1 = 100%

Molecule | Specific OTA detoxification activities in % compared to the enzyme of SEQ ID NO: 1, pH 7.5 [%]
B3 | 24
B4 | 16
B5 | 18
B6 | 17
B7 | 110
B8 | 32
B9 | 34
B10 | 28
B11 | 19
B12 | 20
B13 | 95
B14 | 22
B15 | 88
B16 | 20
B17 | 70
B18 | 17
B19 | 15
B20 | 15
B21 | 37
B22 | 24
